Reference: PMC7460833, “Exploring the Role of Phenylalanine Residues in Modulating the Flexibility and Topography of the Active Site in the Peroxygenase Variant PaDa-I” (International Journal of Molecular Sciences, 2020)
Where a chain is given by its changes, count along the chain named. Names and notes keep the numbering of the source.

B1: PaDa-I (AaeUPO variant) (Cyclocybe aegerita; F119A/F354L/I291V/L110F/V100A/V118I) (protein)
chain: EPGLPPGPLENSSAKLVNDEAHPWKPLRPGDIRGPCPGLNTLASHGYLPRNGVATPAQIINAVQEGFNFDNQAAIAATYAAHLVDGNLITDLLSIGRKTRLTGPDPPPPASVGGLNEHGTFEGDASMTRGDAFFGNNHDFNETLFEQLVDYSNRFGGGKYNLTVAGELRFKRIQDSIATNPNFSFVDFRFFTAYGETTFPANLFVDGRRDDGQLDMDAARSFFQFSRMPDDFFRAPSPRSGTGVEVVVQAHPMQPGRNVGKINSYTVDPTSSDFSTPCLMYEKFVNITVKSLYPNPTVQLRKALNTNLDFLFQGVAAGCTQVFPYGRD
notes: laboratory-evolved secreted variant; plasmid pJRoC30-PaDa-I in Saccharomyces cerevisiae BJ5465, purified; only F311L given; recalled mature changes V57A/L67F/V75I/I248V/F311L (plus signal peptide F12Y/A14V/R15G/A21D); heme-thiolate, N-glycosylated
B2: PaDa-I (AaeUPO variant) (Cyclocybe aegerita; F119L/F354L/I291V/L110F/V100A/V118I) (protein)
chain: B1 chain with A76L
notes: as for B1
B3: PaDa-I (AaeUPO variant) (Cyclocybe aegerita; F119A/F234A/F354L/I291V/L110F/V100A/V118I) (protein)
chain: B1 chain with F191A
notes: as for B1
B4: PaDa-I (AaeUPO variant) (Cyclocybe aegerita; F119L/F234A/F354L/I291V/L110F/V100A/V118I) (protein)
chain: B1 chain with A76L, F191A
notes: as for B1
B5: PaDa-I (AaeUPO variant) (Cyclocybe aegerita; F234A/F354L/I291V/L110F/V100A/V118I) (protein)
chain: B1 chain with A76F, F191A
notes: as for B1

Substrate: O=[N+]([O-])c1ccc2c(c1)OCO2
Experiment: purified protein
Type: biochemical, Cyclocybe aegerita
Conditions: H2O2 1 mM, potassium phosphate 50 mM pH 7.0, 20% v/v acetonitrile

| Protein | Km [µM] | kcat [s⁻¹] | kcat/Km [M⁻¹ s⁻¹] |
| --- | --- | --- | --- |
| B1 | 1386 ± 176 | 356 ± 30 | 257000 |
| B2 | 890 ± 81 | 454 ± 22 | 510000 |
| B3 | 1389 ± 119 | 258 ± 15 | 186000 |
| B4 | 1552 ± 155 | 332 ± 33 | 214000 |
| B5 | 525 ± 73 | 279 ± 18 | 531000 |
